Assay: yeast display, Sf9 membrane polyspecificity reagent, FACS + sequencing; frameworks hold sequencing errors
In short: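 Genes from sorted yeast were amplified by colony PCR, read by MiSeq 2 × 250 sequencing and filtered on CDR length. These cells carried a synthetic nanobody library in Saccharomyces cerevisiae BJ5465 and were sorted by FACS into low and high (top ~1%) gates on anti-HA and streptavidin fluorescence. Polyreactivity is labelled according to the gate of origin.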

## QVQLVESGGGLVQAGGSLRLSCAASGRIFTAYTMGWYRQAPGKERELVAAISTSGTSTYYADSVKGRFTISRDNAKNTVYLQMHSLKPEDTAVYYCATDYYYYPHSQYDYWGQGTQVTVSS
  polyreactivity (PSR sort gate): low polyreactivity

## QVQLVESGGGLVQAGGSLRLSCAASGSIFLLYAMGWYRQAPGKERELVARISWSGDNTRYADSVKGRFTISRDNAKNTVFLQMNSLKPEDTAVYYCNAYYFYGQWKGYDYWGQGTQVTVSS
  polyreactivity (PSR sort gate): low polyreactivity

## QVQLQESGGGLVQAGGGLRLSCAASGTISGPHVMGWYRQAPGKEREFVAAINVGANTYYADNVKGRFTISRDNAINTVYLQMNSLKPEDTAVYYCAAVYYGDIGHEYWGQGTQVTVSC
  polyreactivity (PSR sort gate): low polyreactivity

## QVQLVESWGGLVQAGCSLRLSCAASGRTFRSYAMGWYRQATGKERELVAAISRNGGRTYYADSVKGRFTMSRDNAKYTVYSQMNSLKPEDTAVYYCAAVGDFDVYYWGQATQVTVSS
  polyreactivity (PSR sort gate): high polyreactivity

## QVQLVESGGGLVQAGGSLRLSCAASGFTCPSYNMRWYRQAPGKERELVAAISRSDGNTYYADSVKGRFTISRDNAKNTVYLQMNSLKPEDTEVYYCAAEYEAYAYEYWGQGTQVTVSS
  polyreactivity (PSR sort gate): high polyreactivity

## QVQLVESGGGLVQAGGSLRLSCAASGSTLDFYAMGWYRPAPGKERELVAAITWRGGSTYYADSVKGRFTISRDNAKNTVYLQMNCLKPEDTAVYYCAAKSYWLKSQYYSWGQGTQVTVSS
  polyreactivity (PSR sort gate): high polyreactivity

## QVQLVESGGGLVQAGGSLRLSCSASGIIFPTYAMGLYRQAPGKERELVAAIRWTGGSTYYADSVKGRFTISRDNAKNTVYLQMNSLKPEDTAVYYCAAAYRGRYKYYYWGQGTQVTVSS
  polyreactivity (PSR sort gate): high polyreactivity

## HVQLVDSSGRVVQARCSLRLSCAASGSTFHDNAMGWYRQAPGKDRDLEAAISSGGRTNYADSVKGRFTISRDNAKNTVYLQMNCLKPEDTAVYYCAASFRRWYFYARHDYGYWGLGTQVTVSS
  polyreactivity (PSR sort gate): low polyreactivity

## QVQLVESGGGLVQAGGSLRLSCAASGSTYALNAMGWYRQAPGKDRDLVDAISRRGGSTYYADSVKGRFTISRDNAKNTVYLQMNSLKPEDTAVYYCAARNQSQRTGYDFWGQGTQVTVSS
  polyreactivity (PSR sort gate): high polyreactivity

## QVQLVESGGGLLQAGGSLRLSCAASGFTFFIYAMGWYRQAPGKEREFVAAITGSGGSTYYADSVKGRFRISRDNPKNTVYLLMNSLKPEDTAVYYCNKLSYGRSGYWGQGTQVTVSS
  polyreactivity (PSR sort gate): high polyreactivity

## QVQLVESGGGLVQAGGSHRLSCAASGRTFYYNAMGVYRQAPGKERELVAGITRSGSSTYYADSVKGRFTISRVNAKNTVYLQMNSLKPEDTAVYYCATRRSGYYSFYYWGQGTQVTVSS
  polyreactivity (PSR sort gate): high polyreactivity

## QVQLVESGGGLVQAGGSLRLSCAASGGIFRWYAMGWYRQAPGKEREFVAVITTDGGSTYYADSVKGRFTISRDNAKNTVYLQMNSLKPEDTAVYYCAADYTLIYDYWGQGTQVTVSS
  polyreactivity (PSR sort gate): low polyreactivity

## QVQLVESGGGLVQAGGSLRLSCAASGITFLYYAMGWYRQAPGKERELVAAISGGGASTYYADSVKGRFTISRDNAKNTVYLQKNSLKPEDTAVYYCAAGYRDFFRARFGYWGQGTQVTVSS
  polyreactivity (PSR sort gate): high polyreactivity

## QVQLVESGGGLVQAGGSLRLSCAASGRIFTWSTMGWYRQAAGTERELVAAINRGGSTTYADSVKGRFTISRDNAKNTVYLQMNSLKPEDTAVYYCAAYRSTSRVYSNWRGYDYWGQGTQVTVSS
  polyreactivity (PSR sort gate): high polyreactivity

## QVQLVESGGGLVQAGGSLRLSCAASGRIFKYYAMGWYRQAPGKERELVAAITSSGVSTYADSVKGRFTISRDNAKNTVYLQMNSLKPEDTAVSYCNAADERSQGWVGCDHWGQCTQVTVSS
  polyreactivity (PSR sort gate): low polyreactivity

## QVQLVESGGGLVQAGGSLRLSCAASGSIISNYVMGWYRPAPGKERELVAAITRRGGRTYYADSVKGRFTISRDNAKNTVYLQMNSLKPEDTAVYYCAAERYPEAGSPYGTAEMDYWGQGTLVTVSS
  polyreactivity (PSR sort gate): high polyreactivity

## QVQLVESGGALVQAGGSLRLSCAASGSTIYQNAMGWYRQAPGKERELVAVISSGGSTYYADSVKGRFTISRDNAKNTVYLQMNSLKAEDTAVYYCAADRGTVSYLYSPRAVDYWGQGTQVTVSS
  polyreactivity (PSR sort gate): low polyreactivity

## QVQLVESGGGLVQAGGSLRISCAASGRIFDRYVLGWYRQAPGKERELVAAISSGGSTYYADSVKGRFTISRDNAKNTVYLQMNSLKPEDTAVYYCAADRRSKYDYWGQGTQVTVSS
  polyreactivity (PSR sort gate): low polyreactivity

## QVQLVESGGGLVQAGGSLRLICAASGLIFKFYAMGWYRQAPGKERELVASIRGSGDNTYYADSVKGRFTISRDNAKNTVYLQMNSLKPEDTAVYYCAADWLYDYGEYYYWGQGTQVTVSS
  polyreactivity (PSR sort gate): high polyreactivity

## QVQLVESGGGLVQAGGSLRLSCAASGRIFDYYTMGWYRQAPGKERELVAAISVRGGSTYYADSVKGRFTNSRDNAKNTVYLQMNSLKPEDTAVYYCAARSWRHRTYYYWGQGTQVTVSS
  polyreactivity (PSR sort gate): high polyreactivity

## QVQLVESGGGLVQAGGSLRLSCAASGFTFSFYAMGWYRQAPGKERELVAPISYSGGITYYADSVKGRFTISRENWKNTVYLQMNSLKPEDTAVYYCAAVPYYSKGSSHYNSGNNYCGQGTQVTVSS
  polyreactivity (PSR sort gate): low polyreactivity

## QVQLVESGGGLVQAGGSLRLSCAASGSTFVYYALGWYRPSPGKERELVARITRSGGSTYYADSVKGRFTISRDNAKNTVYLQMNSLKPEDTAVYYCAAEQSVYFLVFTGVKFDYWGQGSQVTVSS
  polyreactivity (PSR sort gate): low polyreactivity

## QVQHVESGAGLVQAGGSLRLSCAASGRIFSRYAMGWYRQAPGKERELVAAISERGASTYYADSVKGRFTISRDNAKNTVYLQMNSLKPEDTAVYYCAAKRGSGYGYWGQGTQVTVSS
  polyreactivity (PSR sort gate): high polyreactivity

## QVQLVESGGGLVQAGGSLRLSCAASGSIFDPYAMGWYRQAPGKERELVAAITASGSSTYYADSVKGRFTISRDNAKNTVYLQMYSLKPEDTAVYYCAADRANWEYLLSWLGYDYWGQGTQVTVSS
  polyreactivity (PSR sort gate): low polyreactivity

## QVQLVESGGGLVQAGGSLRLSCAASGFTFARNAMGWYRQATGKERELVASITQRGGSTNYADSVKVRFTISRDNAQNTVYLQMNSLKPEDTAVYYCNKASQLYYIQGTYSYGYWGQGTQVTVSS
  polyreactivity (PSR sort gate): low polyreactivity

## QVQLVESVGGLVQAGGSLRLSSAASGRTSWYYAMGWYRQAPGKERELVATITRTTGSTYYADSVKGRFTISRDNAKNTVYLQMNSLKPEDTAVYYCDRLYYFNGDYWGLGTQVTVSS
  polyreactivity (PSR sort gate): high polyreactivity

## QVQLVESGGGLVQAGGSLRLSCASSGFTFTANDMGWYRKAPGKERELVAAISWSGDSTYYADSVKGRFTISRDNAKNTVYLQMNRLIPEDTAVYYCNVVFEFLSDGYYSYDYWVQGTQVTVSS
  polyreactivity (PSR sort gate): low polyreactivity

## QVQLVESGGGLVQAGGSLRLSCAASGRIFLGNAMGWYRPAPGKERELVAAITNGGGSTYYADSVNGRFTISRDNAKNTVYLQMNSLKPEDTAVYYCAAQRWTVKYNYWGQGTQVTVSS
  polyreactivity (PSR sort gate): high polyreactivity

## QVQLVESGGGLVQAGGSLRLSCAASGRIFRFYAMGWYRQAPGKERELVAAISWRGGRTYYADSVKGRFTISRDNAKNTVYVQMNSLKPEDTAVYYCNADKYETSGWKYVSWGQGTQVTVSS
  polyreactivity (PSR sort gate): low polyreactivity

## QVQLVESGGGIVQAGGSLRISFAASGFTFLGNAMGWYRQEPGKERELVARISTRGGTTYYADSVKGRFTISRDNAKYTVYFQMNRLKPEDTAVYYCAKKYYLYSPYRTGYDYWGQGTQVTVSS
  polyreactivity (PSR sort gate): high polyreactivity

## QVQLVESGGGLVQAGGSLRLSCAASGYTFYSYALGWYRQAPGKERELVAAITSGGRTNYADSVKGRFTISRDNAKNTVYLQMNSLKPEDTAVYYCAAYVFRAYGRYYYWGQGTQVTVSS
  polyreactivity (PSR sort gate): high polyreactivity

## QVQLVESGGGLVQAGGSLRLSCAASGSTSTSNAMGWYRQAPGKERELVAVISSGGSTYYADSVKGRFTISRDNAKNTVYLQMNSLKPEDTAVYYCSADARIHWFVVRYEYWGQGTQVTVSS
  polyreactivity (PSR sort gate): low polyreactivity

## QVQLVESGGGLVQAGGSLRLSCAASGFTFLVYAMGWYRQAPGKERELVAAISRRGGSTYYADSVKGRFTISRDNAKNTVYLQINSLKPEDTAVYYCNVDRYYRIGYYRLTMGYWGQGTQVTVSS
  polyreactivity (PSR sort gate): high polyreactivity

## QVQLVESGGGLVQAGGSLRLSCAASGSTFGRYVMGWYRQAPGKDRELVAAISKNAGSTYYADSVKGRFTISRDNAKNTVYLQMNSLKPEDTAVYYCAADWRTKGYDSLGQGTQVTVSS
  polyreactivity (PSR sort gate): high polyreactivity

## QVQLVESGGGLVQAGGSLRLSCAASGLTFPRYAMGGYRQAPGKERELVAAISYRGGRTYYADSVKGRFTISRDNAKNTVYLQMNSLKPEDTAVYYCNADSIYSARGWLYGYWGQGTQVTVSS
  polyreactivity (PSR sort gate): low polyreactivity

## QLQLVESGGGLVQAGGRLRLSCAASGLTFQYNAMGWYRQAPGKERELVASINSGGSTDYADSVKGRFTISRDNAKNTVYLQMNRLKQEDTAVYYCASSGYWYSASYGYEYWGQGTQVTVSS
  polyreactivity (PSR sort gate): low polyreactivity

## QVQLVESGGGLLQAGGSLRLSCAASGSTSPANAMGWYRQAPGKERELVAVINSGGGTNYADSVKGRFTISRDNAKNTVYLQMNCLKPEDTAVYYCAKGYRRSFIGYWYLKYGYWGQGSQVTVSS
  polyreactivity (PSR sort gate): high polyreactivity

## QVQLVESGGGLVQAGGSLRLSCAASGSIFPHNAMGWYRQAPGKERELVAAISWRDVITYYADSVKGRFTISRDNAKNTVYLQMNSLKPEDTAVYYCAAELRVYGVDYEYWGQGTQVTVSS
  polyreactivity (PSR sort gate): high polyreactivity

## QDQLVESGGGVVQAGGSLRLSCAASGSIFAYNAMGWYRQAPGKERELVAAITDSGGSTFYADSVKGRFTISRDNAKNTVYLQMNSLKPEDTAVYYCATSGDRLVWGQGTQVTVSS
  polyreactivity (PSR sort gate): low polyreactivity

## QVQLVESGGGLVQAGGSLRLSCAASGFIFYLYTMGWYRQAPGKERELVAAITKSGTRTYYADSVKGRFTISRDNAKNTVYLQMNSLKPEDTAVYYCAAEWGSSYRWGMDYWGQGTQVTVSS
  polyreactivity (PSR sort gate): high polyreactivity

## QVQLVESGGGLVQAGGSLSLSCAASGSIFDYYDMGWYRQSPGKERQLVAAITGSGGNTYYADSVKGRFTISRDNAKNTVYLQMNSLKPEDTAVYYCAAYGLYGAHTGYGSWGQCTQVTVSS
  polyreactivity (PSR sort gate): high polyreactivity

## QVQLVESGGGLVQAGGSLRLSCAASGSTFQRYAMGWYRQAPGKERELVAAITSGGSTYYADSVKGRFTISRDNAKNTVYLQMNSQKPEDTAVYYCNAAWFYRYGYWGQGTQVTVSS
  polyreactivity (PSR sort gate): high polyreactivity

## QVQLVESGGGLVQAGGSLRLSCDASGLIFGPYTMGWYRQAPGKERELVAAISYGGVSTYYADSVKGRFTISRDNAKNTVYLQMNSLNPEDTAVYYCARGDSTRVIRPSAREYDYWGQGTQVTVSS
  polyreactivity (PSR sort gate): low polyreactivity

— the nanobody polyreactivity screen of Harvey et al. (2022)
